From patent US20240043508A1

Target: SARS-CoV-2 S protein of the B.1 (D614G) variant, on pseudotyped lentiviral particles (SARS-CoV-2)
Experiment: cell-based or functional assay

B1: RD3 (antibody, V domains shown)
VH: EVQLLESGGGLVQPGGSLRLSCAASGFTFSDYAMSWVRQAPGKGLEWVSWIYSGSGNKYYADSVKGRFTISRDNSKNTLYLQMNSLRAEDTAVYYCARFPIARTSNSQSSYDGMDVWGQGTLVTVSS
VL: QSVLTQPPSASGTPGQRVTISCSGSSSNIGSNAVSWYQQLPGTAPKLLIYADNKRPSGVPDRFSGSKSGTSASLAISGLRSEDEADYYCGAWDSSLNAYVFGGGTKLTVL
- IC50 (nM), pseudotyped virus infection: 2.22 nM
- IC50 (nM), pseudovirus neutralization, luciferase in 293T/hACE2 cells: 1.4 nM

B2: K202.A (bispecific antibody)
heavy: EVQLLESGGGLVQPGGSLRLSCAASGFTFSDYAMSWVRQAPGKGLEWVSWIYSGSGNKYYADSVKGRFTISRDNSKNTLYLQMNSLRAEDTAVYYCARFPIARTSNSQSSYDGMDVWGQGTLVTVSSASTKGPSVFPLAPCSRSTSESTAALGCLVKDYFPEPVTVSWNSGALTSGVHTFPAVLQSSGLYSLSSVVTVPSSSLGTKTYTCNVDHKPSNTKVDKRVESKYGPPCPPCPPCPAPEFLGGPSVFLFPPKPKDTLMISRTPEVTCVVVDVSQEDPEVQFNWYVDGVEVHNAKTKPREEQFNSTYRVVSVLTVLHQDWLNGKEYKCKVSNKGLPSSIEKGQPREPQVYTLPPSQEEMTKNQVSLTCLVKGFYPSDIAVEWESNGQPENNYKTTPPVLDSDGSFFLYSRLTVDKSRWQEGNVFSCSVMHEALHNHYTQKSLSLSLGK
light: QSVLTQPPSASGTPGQRVTISCSGSSSNIGSNAVSWYQQLPGTAPKLLIYADNKRPSGVPDRFSGSKSGTSASLAISGLRSEDEADYYCGAWDSSLNAYVFGGGTKLTVLVAAPSVFIFPPSDEQLKSGTASVVCLLNNFYPREAKVQWKVDNALQSGNSQESVTEQDSKDSTYSLSSTLTLSKADYEKHKVYACEVTHQGLSSPVTKSFNRGEC
scFv: EVQLLESGGGLVQPGGSLRLSCAASGFTFSSYDMSWVRQAPGKGLEWVSGISYSGGSTYYADSVKGRFTISRDNSKNTLYLQMNSLRAEDTAVYYCARDVNFVPLVTFDYWGQGTLVTVSSGGGGSGGGGSGGGGSQSVLTQPPSASGTPGQRVTLSCTGSSSNIGSNSVTWYQQLPGTAPKLLIYDDNQRPSGVPDRFSGSKSGTSASLAISGLRSEDEADYYCGTWDYSLSAYVFGGGTKLTVL
- IC50 (nM), pseudotyped virus infection: 0.39 nM

B3: K202.B (bispecific antibody)
heavy: EVQLLESGGGLVQPGGSLRLSCAASGFTFSDYAMSWVRQAPGKGLEWVSWIYSGSGNKYYADSVKGRFTISRDNSKNTLYLQMNSLRAEDTAVYYCARFPIARTSNSQSSYDGMDVWGQGTLVTVSSASTKGPSVFPLAPCSRSTSESTAALGCLVKDYFPEPVTVSWNSGALTSGVHTFPAVLQSSGLYSLSSVVTVPSSSLGTKTYTCNVDHKPSNTKVDKRVESKYGPPCPPCPPCPAPEFLGGPSVFLFPPKPKDTLMISRTPEVTCVVVDVSQEDPEVQFNWYVDGVEVHNAKTKPREEQFNSTYRVVSVLTVLHQDWLNGKEYKCKVSNKGLPSSIEKGQPREPQVYTLPPSQEEMTKNQVSLTCLVKGFYPSDIAVEWESNGQPENNYKTTPPVLDSDGSFFLYSRLTVDKSRWQEGNVFSCSVMHEALHNHYTQKSLSLSLGK
light: QSVLTQPPSASGTPGQRVTISCSGSSSNIGSNAVSWYQQLPGTAPKLLIYADNKRPSGVPDRFSGSKSGTSASLAISGLRSEDEADYYCGAWDSSLNAYVFGGGTKLTVLVAAPSVFIFPPSDEQLKSGTASVVCLLNNFYPREAKVQWKVDNALQSGNSQESVTEQDSKDSTYSLSSTLTLSKADYEKHKVYACEVTHQGLSSPVTKSFNRGEC
scFv: EVQLLESGGGLVQPGGSLRLSCAASGFTFSSYDMSWVRQAPGKGLEWVSGISYSGGSTYYADSVKGRFTISRDNSKNTLYLQMNSLRAEDTAVYYCARDVNFVPLVTFDYWGQGTLVTVSSGGGGSGGGGSGGGGSQSVLTQPPSASGTPGQRVTLSCTGSSSNIGSNSVTWYQQLPGTAPKLLIYDDNQRPSGVPDRFSGSKSGTSASLAISGLRSEDEADYYCGTWDYSLSAYVFGGGTKLTVL
- IC50 (nM), pseudotyped virus infection: 0.12 nM
